Laboratory results taken from US20160159924A1 (Novo Nordisk, published 2016).
Substitutions are numbered along the chain they refer to. Where two headings read alike, the source gives them in different places. Each block holds one binder with its values, some of them ahead of it.

Tests used:
recombinant human sc-uPA [1] = molecular target: T1, recombinant human sc-uPA (human, UniProt P00749 21-431); test: SPR, mAb immobilised
T1 construct: 411 amino acid single-chain zymogen expressed in HEK293; the 20-residue signal peptide is not present in the mature protein; also called human single-chain uPA; pro-uPA
Protocol: The binding affinity to recombinant human sc-uPA protein (SEQ ID NO:1) was measured by surface plasmon resonance (SPR).
(§1) The experiments were performed on a Biacore™ instrument (GE Healthcare) and analysed with the BIAcore 4000 Evaluation Software. Anti-human uPA mAb variants were directly immobilized at 150-600 RU on flow cells of a CM5 sensor chip (GE Healthcare; cat. # BR-1000-12) via amine coupling, respectively. Recombinant human sc-uPA was diluted in HBS-N (GE Healthcare Cat BR-1006-70) with 1% BSA buffer with a dilution factor 3× ranging 1000-0.13 nM. Recombinant human sc-uPA was injected for 60 s, followed by a 600 s dissociation phase. Binding curves were measured at 25° C. with a flow rate of 30 μL/min. Regeneration of the chip surface was performed with pH1.5 Glycine for 25 s at 30 μl/min. Determination of the kinetic parameters was performed by fitting with a 1:1 binding model. Binding affinities were calculated and are stated in Table 17 below.

recombinant human sc-uPA [2] = molecular target: T1, recombinant human sc-uPA; test: SPR, mAb immobilised; remark: listed apart in the source
Protocol: The binding affinity to recombinant human sc-uPA protein (SEQ ID […]) was measured by surface plasmon resonance (SPR).
as §1, with “20” for “17”

Kd (recombinant human sc-uPA [1]): 2 nM
B1: rec0266-0000-0010-VH_D98K (antibody, mouse IgG1, V domains shown)
VH: DVKLVESGGGLVKPGGSLKLSCVASGFTFSSYTMSWVRQTPEKRLEWVATISGGGSHIYYADSVKGRFTISRDNAKNTLYLQMSSLKSEDTAIYYCTRDGRKGSWFAYWGQGTLVTVSA
VL: DIVMTQSPATLSVTPGDRVSLSCRTSQSIGDYLHWYQQKSHESPRLLIKYVSQSISGIPSRFSGSGSGSDFTLSINSVESEDVGVYYCQNSHSFPLTFGSGTKLELKR

Kd (recombinant human sc-uPA [1]): 1.7 nM
B2: rec0266-0000-0010-VH_G99F (antibody, mouse IgG1, V domains shown)
VH: B1 VH with K102D, G103F
VL: B1 VL

Kd (recombinant human sc-uPA [1]): 2.2 nM
B3: rec0266-0000-0010-VH_D98T (antibody, mouse IgG1, V domains shown)
VH: B1 VH with K102T
VL: B1 VL

Kd (recombinant human sc-uPA [1]): 4.6 nM
B4: rec0266-0000-0010-VH_G99I (antibody, mouse IgG1, V domains shown)
VH: B1 VH with K102D, G103I
VL: B1 VL

Kd (recombinant human sc-uPA [1]): 3 nM
B5: rec0266-0000-0010-VH_G96R (antibody, mouse IgG1, V domains shown)
VH: B1 VH with G100R, K102D
VL: B1 VL

Kd (recombinant human sc-uPA [1]): 18 nM
B6: rec0266-0000-0010-VH_G99N (antibody, mouse IgG1, V domains shown)
VH: B1 VH with K102D, G103N
VL: B1 VL

Kd (recombinant human sc-uPA [1]): 1.9 nM
B7: rec0266-0000-0010-VH_G96L (antibody, mouse IgG1, V domains shown)
VH: B1 VH with G100L, K102D
VL: B1 VL

Kd (recombinant human sc-uPA [1]): 2.5 nM
B8: rec0266-0000-0010-VH_G99P (antibody, mouse IgG1, V domains shown)
VH: B1 VH with K102D, G103P
VL: B1 VL

Kd (recombinant human sc-uPA [1]): 1.3 nM
B9: rec0266-0000-0010-VH_G96S (antibody, mouse IgG1, V domains shown)
VH: B1 VH with G100S, K102D
VL: B1 VL

Kd (recombinant human sc-uPA [1]): 21 nM
B10: rec0266-0000-0010-VH_G96N (antibody, mouse IgG1, V domains shown)
VH: B1 VH with G100N, K102D
VL: B1 VL

Kd (recombinant human sc-uPA [2]): 0.43 nM
B11: rec0266-0000-0010-VL_N90E (antibody, mouse IgG1, name in Kabat numbering, V domains shown)
VH: B1 VH with K102D
VL: B1 VL with N90E

Kd (recombinant human sc-uPA [1]): 5.4 nM
B12: rec0266-0000-0010-VH_G99T (antibody, mouse IgG1, V domains shown)
VH: B1 VH with K102D, G103T
VL: B1 VL

Kd (recombinant human sc-uPA [1]): 2.1 nM
B13: rec0266-0000-0010-VH_G96P (antibody, mouse IgG1, V domains shown)
VH: B1 VH with G100P, K102D
VL: B1 VL

Kd (recombinant human sc-uPA [1]): 13 nM
B14: rec0266-0000-0010-VH_G96Y (antibody, mouse IgG1, V domains shown)
VH: B1 VH with G100Y, K102D
VL: B1 VL

Kd (recombinant human sc-uPA [1]): 1.8 nM
B15: rec0266-0000-0010-VH_G96I (antibody, mouse IgG1, V domains shown)
VH: B1 VH with G100I, K102D
VL: B1 VL

Kd (recombinant human sc-uPA [1]): 27 nM
B16: rec0266-0000-0010-VH_G99H (antibody, mouse IgG1, V domains shown)
VH: B1 VH with K102D, G103H
VL: B1 VL

Kd (recombinant human sc-uPA [1]): 1.4 nM
B17: rec0266-0000-0010-VH_G99E (antibody, mouse IgG1, V domains shown)
VH: B1 VH with K102D, G103E
VL: B1 VL

Kd (recombinant human sc-uPA [1]): 15 nM
B18: rec0266-0000-0010-VH_G99R (antibody, mouse IgG1, V domains shown)
VH: B1 VH with K102D, G103R
VL: B1 VL

Kd (recombinant human sc-uPA [1]): 4.8 nM
B19: rec0266-0000-0010-VH_G99K (antibody, mouse IgG1, V domains shown)
VH: B1 VH with K102D, G103K
VL: B1 VL

Kd (recombinant human sc-uPA [1]): 0.95 nM
B20: rec0266-0000-0010-VH_G96K (antibody, mouse IgG1, V domains shown)
VH: B1 VH with G100K, K102D
VL: B1 VL

Kd (recombinant human sc-uPA [1]): 3 nM
B21: rec0266-0000-0010-VH_G96T (antibody, mouse IgG1, V domains shown)
VH: B1 VH with G100T, K102D
VL: B1 VL

Kd (recombinant human sc-uPA [1]): 1.8 nM
B22: rec0266-0000-0010-VH_D98Y (antibody, mouse IgG1, V domains shown)
VH: B1 VH with K102Y
VL: B1 VL

Kd (recombinant human sc-uPA [1]): 2.1 nM
B23: rec0266-0000-0010-VH_G99L (antibody, mouse IgG1, V domains shown)
VH: B1 VH with K102D, G103L
VL: B1 VL

Kd (recombinant human sc-uPA [1]): 14 nM
B24: rec0266-0000-0010-VH_D98S (antibody, mouse IgG1, V domains shown)
VH: B1 VH with K102S
VL: B1 VL

Kd (recombinant human sc-uPA [1]): 2.1 nM
B25: rec0266-0000-0010-VH_G96V (antibody, mouse IgG1, V domains shown)
VH: B1 VH with G100V, K102D
VL: B1 VL

Kd (recombinant human sc-uPA [1]): 7.2 nM
B26: rec0266-0000-0010-VH_G96F (antibody, mouse IgG1, V domains shown)
VH: B1 VH with G100F, K102D
VL: B1 VL

Kd (recombinant human sc-uPA [2]): 0.62 nM
B27: rec0266-0000-0010-VL_N90I (antibody, mouse IgG1, name in Kabat numbering, V domains shown)
VH: B1 VH with K102D
VL: B1 VL with N90I

Kd (recombinant human sc-uPA [1]): 2.4 nM
B28: rec0266-0000-0010-VH_G99A (antibody, mouse IgG1, V domains shown)
VH: B1 VH with K102D, G103A
VL: B1 VL

Kd (recombinant human sc-uPA [1]): 2 nM
B29: rec0266-0000-0010-VH_D98L (antibody, mouse IgG1, V domains shown)
VH: B1 VH with K102L
VL: B1 VL

Kd (recombinant human sc-uPA [1]): 5.8 nM
B30: rec0266-0000-0010-VH_G96H (antibody, mouse IgG1, V domains shown)
VH: B1 VH with G100H, K102D
VL: B1 VL

Kd (recombinant human sc-uPA [1]): 2.3 nM
B31: rec0266-0000-0010-VH_G96E (antibody, mouse IgG1, V domains shown)
VH: B1 VH with G100E, K102D
VL: B1 VL

Kd (recombinant human sc-uPA [2]): 0.79 nM
B32: rec0266-0000-0010-VL_N90F (antibody, mouse IgG1, name in Kabat numbering, V domains shown)
VH: B1 VH with K102D
VL: B1 VL with N90F

Kd (recombinant human sc-uPA [1]): 2.5 nM
B33: rec0266-0000-0010-VH_G99V (antibody, mouse IgG1, V domains shown)
VH: B1 VH with K102D, G103V
VL: B1 VL

Kd (recombinant human sc-uPA [1]): 1.5 nM
B34: rec0266-0000-0010-VH_G96A (antibody, mouse IgG1, V domains shown)
VH: B1 VH with G100A, K102D
VL: B1 VL

Kd (recombinant human sc-uPA [2]): 0.68 nM
B35: rec0266-0000-0010-VL_N90G (antibody, mouse IgG1, name in Kabat numbering, V domains shown)
VH: B1 VH with K102D
VL: B1 VL with N90G

Kd (recombinant human sc-uPA [1]): 0.98 nM
B36: rec0266-0000-0010-VH_D98P (antibody, mouse IgG1, V domains shown)
VH: B1 VH with K102P
VL: B1 VL

Kd (recombinant human sc-uPA [1]): 1.1 nM
B37: rec0266-0000-0010-VH_D98R (antibody, mouse IgG1, V domains shown)
VH: B1 VH with K102R
VL: B1 VL

Kd (recombinant human sc-uPA [2]): 0.4 nM
B38: rec0266-0000-0010-VL_N90H (antibody, mouse IgG1, name in Kabat numbering, V domains shown)
VH: B1 VH with K102D
VL: B1 VL with N90H

Kd (recombinant human sc-uPA [1]): 0.41 nM
B39: rec0266-0000-0010-VH_G99S (antibody, mouse IgG1, V domains shown)
VH: B1 VH with K102D, G103S
VL: B1 VL

Kd (recombinant human sc-uPA [1]): 2.1 nM
B40: rec0266-0000-0010-VH_D98V (antibody, mouse IgG1, V domains shown)
VH: B1 VH with K102V
VL: B1 VL

Kd (recombinant human sc-uPA [1]): 1.8 nM
B41: rec0266-0000-0010-VH_G99Y (antibody, mouse IgG1, V domains shown)
VH: B1 VH with K102D, G103Y
VL: B1 VL
